Experimental data published in patent US20230027540A1.

What follows are substances tested against IL-12 receptor complex composed of IL-12 receptor β1 (IL-12Rβ1) and IL-12 receptor β2 (IL-12Rβ2) (human) (UniProt P42701) (assay: cell-based or functional assay).
Chain of IL-12 receptor complex composed of IL-12 receptor β1 (IL-12Rβ1) and IL-12 receptor β2 (IL-12Rβ2) (human) (Q99665 24-862, chain 2 of 2, other chains not shown): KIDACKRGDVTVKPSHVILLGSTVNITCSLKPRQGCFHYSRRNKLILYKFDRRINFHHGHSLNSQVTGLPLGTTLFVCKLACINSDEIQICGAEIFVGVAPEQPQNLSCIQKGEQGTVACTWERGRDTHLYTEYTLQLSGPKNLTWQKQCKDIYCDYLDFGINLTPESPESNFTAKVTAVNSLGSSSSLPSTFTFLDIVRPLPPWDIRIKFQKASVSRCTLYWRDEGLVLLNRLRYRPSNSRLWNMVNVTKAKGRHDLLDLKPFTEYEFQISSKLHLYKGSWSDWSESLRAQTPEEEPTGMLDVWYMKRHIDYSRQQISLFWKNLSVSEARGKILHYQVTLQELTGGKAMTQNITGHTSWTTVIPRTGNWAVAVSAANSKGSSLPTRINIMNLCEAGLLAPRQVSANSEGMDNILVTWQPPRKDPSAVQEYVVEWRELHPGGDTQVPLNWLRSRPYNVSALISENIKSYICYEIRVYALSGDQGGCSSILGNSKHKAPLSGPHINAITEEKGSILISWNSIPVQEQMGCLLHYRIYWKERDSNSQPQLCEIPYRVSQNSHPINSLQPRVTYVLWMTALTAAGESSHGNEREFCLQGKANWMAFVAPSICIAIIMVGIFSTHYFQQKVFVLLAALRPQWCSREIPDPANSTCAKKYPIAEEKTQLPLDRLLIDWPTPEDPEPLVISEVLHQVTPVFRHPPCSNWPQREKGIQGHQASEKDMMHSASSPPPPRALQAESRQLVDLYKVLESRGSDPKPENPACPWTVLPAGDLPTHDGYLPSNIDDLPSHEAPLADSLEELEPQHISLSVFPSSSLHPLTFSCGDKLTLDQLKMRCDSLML

| fold reduction in potency (EC50 of STAT4 phosphorylation) relative to WT IL-12-Fc XENP27201 [fold] | Substance |
| --- | --- |
| > 2 | IL-12-Fc fusion comprising IL-12p35(E153Q) |
| 2 | IL-12-Fc fusion comprising IL-12p35(D55Q/N151D) |
| > 2 | IL-12-Fc fusion comprising IL-12p40(E235Q) |
